Assay results as given in the supplement of paper PMC10567573.

B1: SAT2 (parent)
chain: GYGIYYFIYSTWKGRTIYLEDIYV

Variants of: B1
Experiment: protein stability index of a GFP-peptide fusion (GPS, HEK-293T) (PSI 1-6); higher = more stable
Settings: c terminus: a fixed tail appended
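Also: lentivirally expressed fusions sorted by FACS into six bins by GFP to DsRed ratio, PSI derived from sequencing read proportions per bin multiplied by bin number.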

Variant | protein stability index
GYGIYYRIYSTWKGRTIYLEDIYV | 2.72
GYGIYYQIYSTWKGRTIYLEDIYV | 5.82
GYGIYYLIYSTWKGRTIYLEDIYV | 2.92
GYGIYYKIYSTWKGRTIYLEDIYV | 3.88
GYGIYYSIYSTWKGRTIYLEDIYV | 2.8
GYGIYYNIYSTWKGRTIYLEDIYV | 3.37
GYGIYYDIYSTWKGRTIYLEDIYV | 3.03
GYGIYYAIYSTWKGRTIYLEDIYV | 2
GYGIYYGIYSTWKGRTIYLEDIYV | 3.36
GYGIYYPIYSTWKGRTIYLEDIYV | 3.4
GYGIYYVIYSTWKGRTIYLEDIYV | 3.39
GYGIYYWIYSTWKGRTIYLEDIYV | 2.65
GYGIYYEIYSTWKGRTIYLEDIYV | 2.37
GYGIYYFIYMTWKGRTIYLEDIYV | 3.91
GYGIYYFIYETWKGRTIYLEDIYV | 3.09
GYGIYYFIYWTWKGRTIYLEDIYV | 2.26
GYGIYYFIYCTWKGRTIYLEDIYV | 2.53
GYGIYYFIYPTWKGRTIYLEDIYV | 3.17
GYGIYYFIYQTWKGRTIYLEDIYV | 2.29
GYGIYYFIYNTWKGRTIYLEDIYV | 2.55
GYGIYYFIYYTWKGRTIYLEDIYV | 2.76
GYGIYYFIYSYWKGRTIYLEDIYV | 2.83
GYGIYYFIYSRWKGRTIYLEDIYV | 2.28
GYGIYYFIYSCWKGRTIYLEDIYV | 4.22

Variant | protein stability index
GYGIYYFIYSAWKGRTIYLEDIYV | 2.97
GYGIYYFIYSSWKGRTIYLEDIYV | 2.44
GYGIYYFIYSIWKGRTIYLEDIYV | 2.78
GYGIYYFIYSFWKGRTIYLEDIYV | 2.43
GYGIYYFIYSMWKGRTIYLEDIYV | 3.99
GYGIYYFIYSDWKGRTIYLEDIYV | 3.32
GYGIYYFIYSQWKGRTIYLEDIYV | 2.72
GYGIYYFIYSVWKGRTIYLEDIYV | 3.88
GYGIYYFIYSWWKGRTIYLEDIYV | 3.78
GYGIYYFIYSNWKGRTIYLEDIYV | 4.08
GYGIYYFIYSHWKGRTIYLEDIYV | 3.48
GYGIYYFIYSTWKGRTEYLEDIYV | 2.77
GYGIYYFIYSTWKGRTPYLEDIYV | 2.91
GYGIYYFIYSTWKGRTDYLEDIYV | 3.35
GYGIYYFIYSTWKGRTFYLEDIYV | 3.52
GYGIYYFIYSTWKGRTYYLEDIYV | 2.1
GYGIYYFIYSTWKGRTMYLEDIYV | 1.75
GYGIYYFIYSTWKGRTWYLEDIYV | 2.17
GYGIYYFIYSTWKGRTKYLEDIYV | 3.66
GYGIYYFIYSTWKGRTAYLEDIYV | 3.11
GYGIYYFIYSTWKGRTVYLEDIYV | 2.27
GYGIYYFIYSTWKGRTGYLEDIYV | 2.82
GYGIYYFIYSTWKGRTRYLEDIYV | 1.72
GYGIYYFISSTWKGRTIYLEDIYV | 1.59

Variant | protein stability index
GYGIYYFIISTWKGRTIYLEDIYV | 1.62
GYGIYYFILSTWKGRTIYLEDIYV | 2.57
GYGIYYFIGSTWKGRTIYLEDIYV | 2.77
GYGIYYFINSTWKGRTIYLEDIYV | 2.2
GYGIYYFITSTWKGRTIYLEDIYV | 2.78
GYGIYYFIDSTWKGRTIYLEDIYV | 3.06
GYGIYYFIRSTWKGRTIYLEDIYV | 3.86
GYGIYYFIMSTWKGRTIYLEDIYV | 3.46
GYGIYYFIPSTWKGRTIYLEDIYV | 2.71
GYGIYYFICSTWKGRTIYLEDIYV | 2.94
GYGIYYFIVSTWKGRTIYLEDIYV | 1.67
GYGIYYFIYSTWKGRTIYLNDIYV | 4.06
GYGIYYFIYSTWKGRTIYLWDIYV | 2.35
GYGIYYFIYSTWKGRTIYLTDIYV | 2.4
GYGIYYFIYSTWKGRTIYLHDIYV | 2.91
GYGIYYFIYSTWKGRTIYLRDIYV | 3.97
GYGIYYFIYSTWKGRTIYLSDIYV | 3.32
GYGIYYFIYSTWKGRTIYLCDIYV | 3.04
GYGIYYFIYSTWKGRTIYLGDIYV | 2.26
GYGIYYFIYSTWKGRTIYLADIYV | 3.56
GYGIYYFIYSTWKGRTIYLPDIYV | 2.91
GYGIYYFIYSTWKGRTIYLLDIYV | 2.1
GYGIYYFIYSTWKGRTIYLVDIYV | 3.13
GYGIYYFIYSTWKGRTIYLFDIYV | 2.84

Variant | protein stability index
GYGIYYFIYSTWKGRTIYLMDIYV | 4.05
GYGIYQFIYSTWKGRTIYLEDIYV | 3.44
GYGIYEFIYSTWKGRTIYLEDIYV | 2.64
GYGIYAFIYSTWKGRTIYLEDIYV | 2.88
GYGIYLFIYSTWKGRTIYLEDIYV | 1.83
GYGIYRFIYSTWKGRTIYLEDIYV | 3.12
GYGIYCFIYSTWKGRTIYLEDIYV | 2.94
GYGIYFFIYSTWKGRTIYLEDIYV | 3.09
GYGIYYFIYSTWKGRTIYFEDIYV | 2.37
GYGIYYFIYSTWKGRTIYNEDIYV | 1.73
GYGIYYFIYSTWKGRTIYIEDIYV | 4.11
GYGIYYFIYSTWKGRTIYSEDIYV | 3.57
GYGIYYFIYSTWKGRTIYGEDIYV | 3.7
GYGIYYFIYSTWKGRTIYYEDIYV | 4
GYGIYYFIYSTWKGRTIYHEDIYV | 2.98
GYGIYYFAYSTWKGRTIYLEDIYV | 1.76
GYGIYYFHYSTWKGRTIYLEDIYV | 2.93
GYGIYYFTYSTWKGRTIYLEDIYV | 4.7
GYGIYYFDYSTWKGRTIYLEDIYV | 3.24
GYGIYYFQYSTWKGRTIYLEDIYV | 1.27
GYGIYYFFYSTWKGRTIYLEDIYV | 3.4
GYGIYYFVYSTWKGRTIYLEDIYV | 2.02
GYGIYYFLYSTWKGRTIYLEDIYV | 2.2
GYGIYYFSYSTWKGRTIYLEDIYV | 3.1

Variant | protein stability index
GYGIYYFCYSTWKGRTIYLEDIYV | 1.7
GYGIYYFEYSTWKGRTIYLEDIYV | 3.68
GYGIYYFRYSTWKGRTIYLEDIYV | 3.57
GYGIYYFYYSTWKGRTIYLEDIYV | 3.28
GYGIYYFIYSTWKGRTIILEDIYV | 1.92
GYGIYYFIYSTWKGRTITLEDIYV | 2.92
GYGIYYFIYSTWKGRTICLEDIYV | 1.89
GYGIYYFIYSTWKGRTISLEDIYV | 2.33
GYGIYYFIYSTWKGRTIFLEDIYV | 3.01
GYGIYYFIYSTWKGRTIHLEDIYV | 2.59
GYGIYYFIYSTWKGRTIVLEDIYV | 3.04
GYGIYYFIYSTWKGRTIKLEDIYV | 1.88
GYGIYYFIYSTWKGRTIMLEDIYV | 2.33
GYGIYYFIYSTWKGRTIALEDIYV | 1.71
GYGIYYFIYSTWIGRTIYLEDIYV | 2.8
GYGIYYFIYSTWHGRTIYLEDIYV | 2.87
GYGIYYFIYSTWSGRTIYLEDIYV | 2.39
GYGIYYFIYSTWRGRTIYLEDIYV | 3.04
GYGIYYFIYSTWEGRTIYLEDIYV | 3.58
GYGIYYFIYSTWGGRTIYLEDIYV | 2.94
GYGIYYFIYSTWTGRTIYLEDIYV | 2.87
GYGIYYFIYSTWPGRTIYLEDIYV | 1.99
GYGIYYFIYSTWYGRTIYLEDIYV | 1.48
GYGIYYFIYSTFKGRTIYLEDIYV | 2.8

Variant | protein stability index
GYGIYYFIYSTMKGRTIYLEDIYV | 4.12
GYGIYYFIYSTKKGRTIYLEDIYV | 2.65
GYGIYYFIYSTNKGRTIYLEDIYV | 3.5
GYGIYYFIYSTCKGRTIYLEDIYV | 2.1
GYGIYYFIYSTTKGRTIYLEDIYV | 2.5
GYGIYYFIYSTEKGRTIYLEDIYV | 2.55
GYGIYYFIYSTVKGRTIYLEDIYV | 3.31
GYGIYYFIYSTSKGRTIYLEDIYV | 4.37
GYGIYYFIYSTPKGRTIYLEDIYV | 2.36
GYGIYYFIYSTDKGRTIYLEDIYV | 2.25
GYGIYYFIYSTWKQRTIYLEDIYV | 3.24
GYGIYYFIYSTWKCRTIYLEDIYV | 5.03
GYGIYYFIYSTWKWRTIYLEDIYV | 2.43
GYGIYYFIYSTWKRRTIYLEDIYV | 3.28
GYGIYYFIYSTWKPRTIYLEDIYV | 2.33
GYGIYYFIYSTWKYRTIYLEDIYV | 3.58
GYGIYYFIYSTWKMRTIYLEDIYV | 1.94
GYGIYYFIYSTWKVRTIYLEDIYV | 5.04
GYGIYYFIYSTWKHRTIYLEDIYV | 4.09
GYGIYYFIYSTWKLRTIYLEDIYV | 2.47
GYGIYYFIYSTWKIRTIYLEDIYV | 2.04
GYGIYYFIYSTWKNRTIYLEDIYV | 2.71
GYGIYYFIYSTWKSRTIYLEDIYV | 2.5
GYGIYYFIYSTWKTRTIYLEDIYV | 2.34

Variant | protein stability index
GYGVYYFIYSTWKGRTIYLEDIYV | 1.71
GYGWYYFIYSTWKGRTIYLEDIYV | 2.71
GYGNYYFIYSTWKGRTIYLEDIYV | 3.27
GYGIYYFIYSTWKGMTIYLEDIYV | 3.05
GYGIYYFIYSTWKGLTIYLEDIYV | 3.07
GYGIYYFIYSTWKGHTIYLEDIYV | 2.96
GYGIYYFIYSTWKGCTIYLEDIYV | 3.31
GYGIYYFIYSTWKGFTIYLEDIYV | 4.58
GYGIYYFIYSTWKGPTIYLEDIYV | 2.17
GYGIYYFIYSTWKGWTIYLEDIYV | 3.58
GYGIYYFIYSTWKGDTIYLEDIYV | 2.9
GYGIYYFIYSTWKGTTIYLEDIYV | 3.03
GYGIYYFIYSTWKGSTIYLEDIYV | 2.1
GYGIYYFIYSTWKGNTIYLEDIYV | 2.37
GYGIYYFIYSTWKGATIYLEDIYV | 4.7
GYGIYYFIYSTWKGETIYLEDIYV | 3.72
GYGIYYFIYSTWKGGTIYLEDIYV | 2.53
GYGIYYFIYSTWKGRAIYLEDIYV | 3.27
GYGIYYFIYSTWKGRMIYLEDIYV | 3.12
GYGIYYFIYSTWKGRNIYLEDIYV | 1.86
GYGIYYFIYSTWKGRSIYLEDIYV | 3.8
GYGIYYFIYSTWKGRGIYLEDIYV | 3.31
GYGIYYFIYSTWKGRVIYLEDIYV | 3.24
GYGIYYFIYSTWKGRWIYLEDIYV | 2.95

Variant | protein stability index
GYGIYYFIYSTWKGREIYLEDIYV | 2.53
GYGIYYFIYSTWKGRFIYLEDIYV | 3.53
GYGIYYFIYSTWKGRRIYLEDIYV | 1.69
GYGIYYFIYSTWKGRCIYLEDIYV | 2.83
GYGIYYFIYSTWKGRLIYLEDIYV | 3.32
GYGIRYFIYSTWKGRTIYLEDIYV | 2.39
GYGIHYFIYSTWKGRTIYLEDIYV | 2.42
GYGIIYFIYSTWKGRTIYLEDIYV | 2.59
GYGIGYFIYSTWKGRTIYLEDIYV | 3.41
GYGIKYFIYSTWKGRTIYLEDIYV | 2.61
GYGIWYFIYSTWKGRTIYLEDIYV | 2.09
GYGICYFIYSTWKGRTIYLEDIYV | 2.85
GYGILYFIYSTWKGRTIYLEDIYV | 2.15
GYGITYFIYSTWKGRTIYLEDIYV | 2.53
GYGIDYFIYSTWKGRTIYLEDIYV | 2.62
GYGIYYFIYSTWKGRTIYLEIIYV | 3.08
GYGIYYFIYSTWKGRTIYLECIYV | 2.34
GYGIYYFIYSTWKGRTIYLEEIYV | 2.34
GYGIYYFIYSTWKGRTIYLEHIYV | 2.67
GYGIYYFIYSTWKGRTIYLEAIYV | 2.28
